Laboratory results from IntAct's records for PubMed 21926999.

Target: ARHGAP24, Q8N264-1
Sequence (Q8N264 whole entry): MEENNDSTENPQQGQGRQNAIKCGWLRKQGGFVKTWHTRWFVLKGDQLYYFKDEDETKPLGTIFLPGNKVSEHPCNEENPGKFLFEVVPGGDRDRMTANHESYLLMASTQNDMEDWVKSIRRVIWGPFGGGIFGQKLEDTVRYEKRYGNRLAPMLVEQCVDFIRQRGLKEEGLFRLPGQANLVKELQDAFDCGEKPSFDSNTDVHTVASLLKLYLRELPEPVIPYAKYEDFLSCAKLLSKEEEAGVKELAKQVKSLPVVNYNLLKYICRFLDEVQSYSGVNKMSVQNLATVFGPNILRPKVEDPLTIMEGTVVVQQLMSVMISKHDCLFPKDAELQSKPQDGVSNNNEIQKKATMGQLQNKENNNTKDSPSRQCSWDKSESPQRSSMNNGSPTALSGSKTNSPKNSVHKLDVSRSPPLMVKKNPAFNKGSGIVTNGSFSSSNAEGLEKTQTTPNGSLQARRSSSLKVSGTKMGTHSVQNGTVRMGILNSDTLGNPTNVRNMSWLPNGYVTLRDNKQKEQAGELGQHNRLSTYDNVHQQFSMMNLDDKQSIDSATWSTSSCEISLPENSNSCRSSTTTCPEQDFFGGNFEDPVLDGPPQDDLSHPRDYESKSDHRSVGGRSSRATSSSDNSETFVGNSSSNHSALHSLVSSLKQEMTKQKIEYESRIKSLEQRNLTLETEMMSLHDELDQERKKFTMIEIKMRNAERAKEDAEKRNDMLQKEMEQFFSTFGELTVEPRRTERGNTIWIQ

Filamin-A (Homo sapiens), P21333 M2474E
effect of a mutation on the interaction: disrupting interaction
